Source: US7662633B2, “Method of screening for inhibitors of osteopontin” (GlaxoSmithKline LLC, priority 2000, dated 2010)
Ends that are not written are not given here.

Assays:
Type in all cases: cell-based
α4β1 [1] = molecular target: T1, α4β1 (Homo sapiens, UniProt P05556+P13612); assay: J6 cell adhesion to GST-CS-1 (CS-1 fragment of fibronectin); settings: for Relative potency compared to parent peptide SVVYGLR against α4β1 (J6 adhesion to GST-CS-1): SVVYGLR peptide with the residue mutated to alanine; for Inhibition of J6 cell adhesion to GST-CS-1 by synthetic peptide (α4β1-CS-1 interaction): varying peptide concentrations, 35 min 37° C.
T1 construct: Of the integrins analysed J6 express only α5β1 and α4βwhile HL60 express α4β1 and α5β1 and αLβ2; endogenous in cells; host or cells: J6 cells
Experimental: (§1) All proteins were coated onto MAXISORP plates (Nunc) overnight at 4° C. Each protein was diluted in PBS at the concentrations indicated, and a total volume of 100 μl added per well. Plates were washed twice in PBS then blocked with 3% BSA/PBS for 1 hr at 37° C., and finally washed twice in PBS. Routinely HL60 cells were pelleted and washed once in HBSS (Sigma) then spread in 25 mM Hepes 7.5, HBSS at 2×10^6 ml^−1 (100 μl per well) in the presence of 0.2 mM MnCl2 and 50 ng/ml TPA, with other additions as indicated. J6 cells were likewise pelleted and washed once in HBSS (Sigma) then spread in 25 mM Hepes (pH7.5), HBSS at 2×10^6ml^−1 (100 μl per well) in the presence of 0.2 mM MnCl2 and other additions as indicated. For antibody inhibition cells were preincubated with the antibody (10 μg/ml) on ice for 10 minutes. Cells were then allowed to attach for 35 minutes at 37° C., washed twice in PBS, once in ethanol, and fixed in ethanol for 20 minutes at room temperature. For quantitation cells were visualised by staining with 0.1% crystal violet (Sigma) for 10 minutes then lysed in 0.5% TRITON X-100 (Sigma) and read at 570 nm in a Wallac Victor plate reader.

α4β1 [2] = assay: as above; settings: J6/CS-1 versus RPMI8866/zz-MAdCAM
Experimental: as §1

α4β7 = molecular target: T2, α4β7 (Homo sapiens, UniProt P13612+P26010); assay: α4β7 adhesion assay: RPMI8866 cell adhesion to zz-MAdCAM; settings: for Relative potency compared to parent peptide SVVYGLR against α4β7 (RPMI8866 adhesion to zz-MAdCAM): SVVYGLR peptide with the residue mutated to alanine; for Inhibition of RPMI8866 cell adhesion to zz-MAdCAM by synthetic peptide: varying peptide concentrations, 20 min 37° C.
T2 construct: RPMI8866 cells which express α4β7, and small amounts of α4β1 and α5β1 were used; endogenous in cells; host or cells: RPMI8866 cells
T2 sequence (P13612 34-1032): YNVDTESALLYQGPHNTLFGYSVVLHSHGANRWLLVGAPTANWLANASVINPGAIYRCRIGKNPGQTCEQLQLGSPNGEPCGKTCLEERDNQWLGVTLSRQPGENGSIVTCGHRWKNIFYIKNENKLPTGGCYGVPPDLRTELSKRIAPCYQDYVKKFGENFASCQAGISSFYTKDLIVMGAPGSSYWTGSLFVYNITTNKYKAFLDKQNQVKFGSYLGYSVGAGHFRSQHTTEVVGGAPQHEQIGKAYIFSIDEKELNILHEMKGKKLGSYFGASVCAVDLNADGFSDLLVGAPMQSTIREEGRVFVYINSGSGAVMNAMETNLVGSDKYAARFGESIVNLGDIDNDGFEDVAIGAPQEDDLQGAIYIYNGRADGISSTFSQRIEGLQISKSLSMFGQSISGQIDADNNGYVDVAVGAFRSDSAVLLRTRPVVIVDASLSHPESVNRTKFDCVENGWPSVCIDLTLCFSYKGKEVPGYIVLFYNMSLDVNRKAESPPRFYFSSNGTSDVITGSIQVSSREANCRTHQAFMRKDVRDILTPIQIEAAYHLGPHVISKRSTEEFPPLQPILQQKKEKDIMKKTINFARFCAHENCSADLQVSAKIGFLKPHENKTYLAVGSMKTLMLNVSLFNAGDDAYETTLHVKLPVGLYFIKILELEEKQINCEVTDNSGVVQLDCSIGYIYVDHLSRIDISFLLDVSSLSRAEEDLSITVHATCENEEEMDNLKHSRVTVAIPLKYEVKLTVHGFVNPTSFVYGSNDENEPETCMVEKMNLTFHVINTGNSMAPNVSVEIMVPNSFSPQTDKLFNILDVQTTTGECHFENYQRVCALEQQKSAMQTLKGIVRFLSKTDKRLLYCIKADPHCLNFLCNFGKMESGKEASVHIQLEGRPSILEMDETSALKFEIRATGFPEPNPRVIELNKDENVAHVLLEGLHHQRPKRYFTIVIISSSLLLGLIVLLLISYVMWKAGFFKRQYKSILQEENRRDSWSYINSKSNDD
T2 sequence (P26010 20-798): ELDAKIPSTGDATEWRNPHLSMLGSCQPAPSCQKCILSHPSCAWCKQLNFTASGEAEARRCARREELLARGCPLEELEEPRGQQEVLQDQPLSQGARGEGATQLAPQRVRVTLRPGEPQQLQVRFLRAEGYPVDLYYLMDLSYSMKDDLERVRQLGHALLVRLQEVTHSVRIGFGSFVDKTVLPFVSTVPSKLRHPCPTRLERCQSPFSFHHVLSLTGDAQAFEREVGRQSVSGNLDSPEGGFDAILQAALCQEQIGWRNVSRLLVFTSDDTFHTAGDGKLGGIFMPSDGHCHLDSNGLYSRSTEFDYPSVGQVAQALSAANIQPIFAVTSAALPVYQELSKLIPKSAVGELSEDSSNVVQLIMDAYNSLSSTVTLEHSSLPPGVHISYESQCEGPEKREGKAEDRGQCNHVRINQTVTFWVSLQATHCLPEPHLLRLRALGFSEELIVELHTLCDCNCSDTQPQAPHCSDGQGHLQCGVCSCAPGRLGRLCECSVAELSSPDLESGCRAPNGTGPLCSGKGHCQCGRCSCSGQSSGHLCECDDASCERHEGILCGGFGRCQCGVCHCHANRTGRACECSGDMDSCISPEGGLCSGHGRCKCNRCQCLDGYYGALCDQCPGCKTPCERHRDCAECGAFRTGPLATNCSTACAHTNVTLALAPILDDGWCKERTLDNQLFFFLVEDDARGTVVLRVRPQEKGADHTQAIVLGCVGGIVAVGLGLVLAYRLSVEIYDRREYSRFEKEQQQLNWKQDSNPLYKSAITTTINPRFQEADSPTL
Experimental: The recombinant zz-MAdCAM was absorbed onto Maxisorp plate pre-coated for 2.5 hours at 37° C. with 100 μL of human IgG, and then washed twice with PBS. For capture the recombinant zz-MAdCAM was diluted to the appropriate concentration in 3% BSA/PBS, 100 μl added to each well, and incubated overnight at 4° C. Prior to use plates were washed twice in PBS.
For the α4β7 adhesion assay RPMI8866 cells were washed in cation free HBSS supplemented with 1 mM EDTA, pelleted and labelled by incubating with BCECF (Molecular Probes) in cation-free HBSS at 37° C. for 10 minutes. At this stage cells were also co-incubated with […] human IgG to block endogenous Fc receptors. Cells were then washed once more in cation-free HBSS and then used in the adhesion assay at a final concentration of 3×10^6 cells ml^−1 in the presence of the appropriate treatment as indicated. To prevent cells clumping the assay plate was finally centrifuged at 400 rpm for 3 minutes without the brake. Cells were then incubated for 20 minutes at 37° C. and then washed twice in PBS before reading directly in a plate reader. For antibody inhibition studies the cells were preincubated with the appropriate antibody at […] for 5 minutes at room temperature prior to being placed in the incubator.

α4β1 [3] = molecular target: T1, α4β1; assay: J6 cell adhesion to GST fusion proteins of osteopontin (OPN); settings: 0.2 mM MnCl2, 35 min 37° C.
Experimental: as §1

T1 sequence (P05556 21-798, one chain of several): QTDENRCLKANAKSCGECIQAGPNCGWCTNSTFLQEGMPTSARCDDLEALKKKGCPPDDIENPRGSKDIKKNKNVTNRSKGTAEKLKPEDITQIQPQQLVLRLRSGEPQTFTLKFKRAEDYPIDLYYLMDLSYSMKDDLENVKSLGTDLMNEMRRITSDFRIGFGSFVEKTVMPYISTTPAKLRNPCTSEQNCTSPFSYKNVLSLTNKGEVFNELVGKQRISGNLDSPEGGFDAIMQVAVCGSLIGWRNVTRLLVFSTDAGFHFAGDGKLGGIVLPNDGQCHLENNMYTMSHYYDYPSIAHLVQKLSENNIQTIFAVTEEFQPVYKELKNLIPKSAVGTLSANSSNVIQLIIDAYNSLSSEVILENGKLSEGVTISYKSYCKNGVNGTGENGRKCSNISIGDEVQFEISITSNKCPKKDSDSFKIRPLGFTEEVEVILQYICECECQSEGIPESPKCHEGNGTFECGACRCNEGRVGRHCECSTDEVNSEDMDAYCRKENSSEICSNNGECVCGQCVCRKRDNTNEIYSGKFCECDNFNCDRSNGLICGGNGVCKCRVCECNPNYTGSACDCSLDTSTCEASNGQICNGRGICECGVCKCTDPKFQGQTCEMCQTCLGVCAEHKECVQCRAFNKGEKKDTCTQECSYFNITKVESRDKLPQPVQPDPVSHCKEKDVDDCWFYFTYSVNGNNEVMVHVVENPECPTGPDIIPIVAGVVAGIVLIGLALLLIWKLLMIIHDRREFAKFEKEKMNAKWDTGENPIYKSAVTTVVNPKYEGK

Arg168: SVVYGLR synthetic peptide in which Arg168 is mutated to alanine (SVVYGLA; SVVYGLR peptide; UniProt P10451 162-168, looked up, variant R168A)
Relative potency compared to parent peptide SVVYGLR against α4β1 (J6 adhesion to GST-CS-1) (α4β1 [1]): more potent
Selectivity between α4β1 and α4β7 on mutating the residue (α4β1 [2]): introduces a degree of selectivity
Relative potency compared to parent peptide SVVYGLR against α4β7 (RPMI8866 adhesion to zz-MAdCAM) (α4β7): less potent

FPTDLPA (listed as Homo sapiens) [synthetic peptide of OPN aa136-142]
Inhibition of J6 cell binding to CS-1 over the scrambled control at lower matrix concentrations (α4β1 [1]; lower matrix concentrations, data not shown): weak inhibition
Inhibition of J6 cell adhesion to GST-CS-1 by synthetic peptide (α4β1-CS-1 interaction) (α4β1 [1]): unable to inhibit binding to CS-1

GRVLYSV (Synthesized and/or Homo sapiens) [scrambled control peptide of SVVYGLR, reference compound]
Inhibition of RPMI8866 cell adhesion to zz-MAdCAM by synthetic peptide (α4β7): no effect

Gly166: SVVYGLR synthetic peptide in which Gly166 is mutated to alanine (SVVYALR; SVVYGLR peptide; UniProt P10451 162-168, looked up, variant G166A)
Selectivity between α4β1 and α4β7 on mutating the residue (α4β1 [2]): introduces a degree of selectivity

Leu167: SVVYGLR synthetic peptide in which Leu167 is mutated to alanine (SVVYGAR; SVVYGLR peptide; UniProt P10451 162-168, looked up, variant L167A)
Relative potency compared to parent peptide SVVYGLR against α4β1 (J6 adhesion to GST-CS-1) (α4β1 [1]): relative potency similar to that observed with the blocked peptide
Relative potency compared to parent peptide SVVYGLR against α4β7 (RPMI8866 adhesion to zz-MAdCAM) (α4β7): relative potency similar to that observed with the blocked peptide

SVVYGLR (VARIANT 2 The carboxy terminal end can be, for example COO-, COOH, or CONH2, see specification, for example Figures 10, 11, and 13; listed as Homo sapiens) [synthetic peptide of OPN aa162-168]
Potency at blocking J6 adhesion to CS-1 compared with the CS-1 peptide itself (α4β1 [1]): only slightly less potent
Inhibition of J6 cell adhesion to GST-CS-1 by synthetic peptide (α4β1-CS-1 interaction) (α4β1 [1]): blocked adhesion to CS-1
Inhibition of RPMI8866 cell adhesion to zz-MAdCAM by synthetic peptide (α4β7): inhibited adhesion

SVVYGLR-CONH2 (SVVYGLR-NH2; listed as Homo sapiens) [SVVYGLR (SEQ ID NO: 4)-CONH2, capped peptide lacking the acidic carboxy terminus]
Inhibition of J6 cell adhesion to GST-CS-1 by synthetic peptide (α4β1-CS-1 interaction) (α4β1 [1]): abrogated the ability
Inhibition of RPMI8866 cell adhesion to zz-MAdCAM by synthetic peptide (α4β7): abrogated the ability

Tyr165: SVVYGLR synthetic peptide in which Tyr165 is mutated to alanine (SVVAGLR; SVVYGLR peptide; UniProt P10451 162-168, looked up, variant Y165A)
Relative potency compared to parent peptide SVVYGLR against α4β1 (J6 adhesion to GST-CS-1) (α4β1 [1]): reduced the potency
Relative potency compared to parent peptide SVVYGLR against α4β7 (RPMI8866 adhesion to zz-MAdCAM) (α4β7): reduced the potency

Val163: SVVYGLR synthetic peptide in which Val163 is mutated to alanine (SAVYGLR; SVVYGLR peptide; UniProt P10451 162-168, looked up, variant V163A)
Relative potency compared to parent peptide SVVYGLR against α4β1 (J6 adhesion to GST-CS-1) (α4β1 [1]): reduced the potency
Relative potency compared to parent peptide SVVYGLR against α4β7 (RPMI8866 adhesion to zz-MAdCAM) (α4β7): reduced the potency

Val164: SVVYGLR synthetic peptide in which Val164 is mutated to alanine (SVAYGLR; SVVYGLR peptide; UniProt P10451 162-168, looked up, variant V164A)
Relative potency compared to parent peptide SVVYGLR against α4β1 (J6 adhesion to GST-CS-1) (α4β1 [1]): minor contribution to binding
Relative potency compared to parent peptide SVVYGLR against α4β7 (RPMI8866 adhesion to zz-MAdCAM) (α4β7): minor contribution to binding

aa17-168: GST fusion protein representing the thrombin cleaved fragment of OPN
Ability of coated GST-OPN fusion protein to support J6 cell adhesion (α4β1 [3]): adhered

aa17-168RAD: GST fusion of thrombin cleaved OPN fragment with RGD motif mutated to RAD
Ability of coated GST-OPN fusion protein to support J6 cell adhesion (α4β1 [3]): did not affect binding

aa17-314: GST fusion protein representing full length human OPN
Ability of coated GST-OPN fusion protein to support J6 cell adhesion (α4β1 [3]): adhered

aa115-168: GST fusion, N-terminal deletion of the thrombin cleaved OPN fragment
Ability of coated GST-OPN fusion protein to support J6 cell adhesion (α4β1 [3]): bound

aa125-168: GST fusion, N-terminal deletion of the thrombin cleaved OPN fragment
Ability of coated GST-OPN fusion protein to support J6 cell adhesion (α4β1 [3]): bound

aa132-146: GST fusion protein of OPN aa132-146 (LVTDFPTDLPATEVF; also: GST fusion protein; UniProt P10451 132-146, looked up, fragment)
Ability of coated GST-OPN fusion protein to support J6 cell adhesion (α4β1 [3]): supported J6 cell adhesion

aa153-168: GST fusion protein of OPN aa153-168, Gly of RGD mutated to Ala (VDTYDGRADSVVYGLR; also: GST fusion protein)
Ability of coated GST-OPN fusion protein to support J6 cell adhesion (α4β1 [3]): supported J6 cell adhesion
